Reference: PMC3612083, “Imaging Beads-Retained Prey Assay for Rapid and Quantitative Protein-Protein Interaction” (PLoS ONE, 2013)
No end group written: not given here.

Experiments:
[1] = biological target: T1, GST-GRIP Y2177A (Golgin245 GRIP Y2177A in pGEB) (UniProt Q13439 2168-2215, Y2177A); assay: pull-down; imaging beads-retained prey (IBRP) assay: GST-bait on glutathione beads (16 µg/µl), HEK293 lysate with GFP-prey, 100 µM GMPPNP; 30 min at 4°C, washes with 300 mM NaCl, bead fluorescence imaged; GFP lysate as control; conditions: one partner purified
T1 construct: GRIP domain of Golgin245 with Y2177A; insert moved from the pEGFP-C2 construct by EcoRI/BamHI into pGEB; pGEB is a modified pGEX-KG vector; also called Y2177A mutant
T1 chain (looked up): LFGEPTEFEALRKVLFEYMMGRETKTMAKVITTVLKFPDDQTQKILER

[2] = biological target: T2, GST-Arl1 (UniProt P61212 1-181); assay: pull-down; IBRP assay: GST-Arl1 on glutathione beads (13 µg/µl) loaded with GMPPNP, HEK293 lysate with GFP-prey; bead fluorescence imaged; conditions: one partner purified
T2 construct: Arl1; also called Arl1-GMPPNP; source: loaded with GMPPNP or GDP on the beads
T2 sequence (looked up): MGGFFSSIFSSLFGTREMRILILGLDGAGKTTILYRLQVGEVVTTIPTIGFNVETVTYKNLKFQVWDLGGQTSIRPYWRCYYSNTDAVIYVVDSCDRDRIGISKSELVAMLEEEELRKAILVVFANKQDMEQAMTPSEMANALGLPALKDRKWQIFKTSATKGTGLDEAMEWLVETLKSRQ

B1: Arl1-GFP (wild type rat Arl1 in pEGFP-N1) (natural protein, UniProt P61212 1-181, looked up)
chain: T2 sequence (looked up)
notes: Arl1, ARF family small GTPase, rat, wild type; source: HEK293, transfected, in lysate
- fold reduction of the interaction (IBRP affinity) against wild type GST-GRIP [1]: > 14 fold

B2: GFP-GRIP (Golgin245 GRIP domain wild type in pEGFP-C2) (domain or fragment, UniProt Q13439 2168-2215, looked up)
chain: {GFP}-LFGEPTEFEYLRKVLFEYMMGRETKTMAKVITTVLKFPDDQTQKILER
notes: GRIP domain of Golgin245; source: HEK293, transfected, in lysate
- relative IBRP affinity with GMPPNP, fold of that with GDP [2]: 3 fold

B3: GFP-GRIP (Y2177A) (Golgin245 GRIP domain Y2177A mutant in pEGFP-C2) (domain or fragment, UniProt Q13439 2168-2215, looked up)
chain: {GFP}-LFGEPTEFEALRKVLFEYMMGRETKTMAKVITTVLKFPDDQTQKILER
notes: GRIP domain of Golgin245 with Y2177A; source: HEK293, transfected, in lysate
- fold reduction of relative IBRP affinity against wild type GRIP domain [2]: ~80 fold
